Here are results for 1 molecule from patent US20220168400A1, “USE OF A MANGANESE SUPEROXIDE DISMUTASE WITH HIGH STABILITY IN THE PREVENTION OR TREATMENT OF CEREBRAL STROKE” (CARRY HEALTH BIOPHARMACEUTICALS (HANGZHOU) CO., LTD., priority 2019, published 2022).

Type in all cases: in vivo
Assay [1] deals with middle cerebral artery occlusion (MCAO) model in C57BL/6J mice. Briefly: Cerebral infarction area in middle cerebral artery occlusion (MCAO) model (TTC staining). To be noted: vs model group. From the text:
Male C57BL/6J wild-type mice were all purchased from Guangdong Experimental Animal Center. The male C57BL/6J wild-type mice were 8 weeks old, when they were subjected to establish middle cerebral artery occlusion (MCAO) model.
(§1) (3) MS-SOD1 group (10 mice): mice aged 4 weeks were fed with drinking water supplemented with MS-SOD for 4 weeks (3 U/day/g body weight), and then subjected to establish middle cerebral artery occlusion model;
(§2) (4) MS-SOD2 group (10 mice): after establishing middle cerebral artery occlusion model, the mice were intragastrically administered with MS-SOD 600 U once when they waked up from the anesthesia. […]
At 24 hours after MCAO model establishment, the head was cut off and the brain was taken after anesthesia. […] The infarction area of each territory was measured by ImageJ software. […] The total infarction area was calculated by integrating the infarction territories between sections.
(§3) Finally, the differences of different intervention conditions and MCAO model establishment on the degree of cerebral injury and neurological severity in mice were analyzed. All data were expressed as mean ±standard deviation. […]

For assay [2] the test system is unchanged. Briefly: Modified neurological severity score in MCAO model. To be noted: vs model group. The method, then:
as §1, §2
The procedure was performed on each group of mice. […] The mice in groups 2-4 were scored by double blind method.
as §3

The subject of assay [3] is cerebral hemorrhage model in wild-type AB strain zebrafish. The assay can be described thus: Blood flow volume in simvastatin-induced cerebral hemorrhage model in zebrafish. To be noted: for Blood flow volume (mean ± SE): n = 10, model control 0.13, normal control 0.30 nL/s. The method, then:
3 dpf wild-type AB strain zebrafish was administered with an aqueous simvastatin solution (0.5 μM) for 18 hours to establish a cerebral hemorrhage model in zebrafish. 180 wild-type AB strain zebrafishes at 3 days post fertilization (3 dpf) were randomly selected and put in a six-well plate, 30 per well (experiment group). Aqueous MS-SOD solutions with concentrations of 222, 667 and 2000 μg/mL were administrated respectively, the concentration of positive control drug icariin was 30 μM, and the normal control group (the zebrafishes were treated with water for fish) and the model control group were set at the same time. The volume of each well was 3 mL. After treatment of zebrafishes with samples for 4 hours, except for the normal control group, the other experiment groups were treated with simvastatin for 18 hours to establish the cerebral hemorrhage model. After the treatment, 10 zebrafishes from each group were randomly selected and placed in a heart rate and blood flow analysis system to record blood flow video of zebrafish, and analyze the blood flow volume (O) of zebrafish. The statistical significance of the blood flow volume was used to evaluate the improvement effect of MS-SOD on blood flow volume of cerebral hemorrhage. The formula of the improvement effect of MS-SOD on blood flow volume of cerebral hemorrhage was as follows: [formula] Statistical analysis was performed using variance analysis and Dunnett's T-test, and p<0.05 indicated a significant difference. 4.

“And” between values parts separate entries of the source, which are not always exact repeats. Equal entries are not always repeated.

B1: MS-SOD: manganese superoxide dismutase with high stability, gene from Thermus thermophilus HB27 expressed in E. coli; amino acid sequence SEQ ID NO: 4 (protein)
chain: MPYPFKLPDLGYPYEALEPHIDAKTMEIHHQKHHGAYVTNLNAALEKYPYLHGVEVEVLLRHLAALPQDIQTAVRNNGGGHLNHSLFWRLLTPGGAKEPVGELKKAIDEQFGGFQALKEKLTQAAMGRFGSGWAWLVKDPFGKLHVLSTPNQDNPVMEGFTPIVGIDVWEHAYYLKYQNRRADYLQAIWNVLNWDVAEEFFKKA
modifications: Amino acid sequence for MS-SOD
For B1, the “area of cerebral injury” value is given as “significantly reduced” in assay [1] (MS-SOD1 group: 3 U/day/g body weight for 4 weeks before MCAO, P=0) and “significantly reduced” in assay [1] (MS-SOD2 group: 600 U intragastrically once after MCAO, P=0.015). The neurological severity score entry in assay [2] (MS-SOD1 group: 3 U/day/g body weight for 4 weeks before MCAO, P=0.281) is recorded as “not significantly improved”. Also, the “neurological severity score (mNSS)” value in assay [2] (MS-SOD2 group: 600 U intragastrically once after MCAO, P=0.05) is recorded as “significantly reduced”. The “Blood flow volume improvement effect” value is recorded as 59% in assay [3] (MS-SOD 222 μg/mL), 71% in assay [3] (MS-SOD 667 μg/mL) and 71% in assay [3] (MS-SOD 2000 μg/mL). Further, the “Blood flow volume (mean ± SE)” value is 0.23 nL/s and 0.23 ± 0.014 nL/s in assay [3] (MS-SOD 222 μg/mL); 0.25 nL/s and 0.25 ± 0.024 nL/s in assay [3] (MS-SOD 667 μg/mL); 0.25 nL/s and 0.25 ± 0.019 nL/s in assay [3] (MS-SOD 2000 μg/mL).
